According to the supplement of paper PMC10567573:

B1: FAM107A (parent)
chain: HRRGLGVDSKPELQRVLEHRRRNQ
B2: SMG5 (parent)
chain: QEKLQVLMAEGLLPAVKVFLDWLR

Variants of: B1
Assay: protein stability index of a GFP-peptide fusion (GPS, HEK-293T) (PSI 1-6); higher = more stable
Settings: c terminus: a fixed tail appended
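Note: lentivirally expressed fusions sorted by FACS into six bins by GFP to DsRed ratio, PSI derived from sequencing read proportions per bin multiplied by bin number.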

Protein stability index: each site, then its substitutions
G4: F 4.72; E 5.08; S 3.63; P 4.8; D 4.49; I 4.21; R 4.2; K 5.72; A 3.35; N 4.42; Q 4.33; C 4.02; H 4.3; T 3.35
R3: S 4.91; L 4.14; M 3.9; C 3.97; V 4.74; Q 3.65; A 4.9; K 4.52; I 4.29; H 4.95; T 4.92; E 4.2; G 5.11; N 4.25; W 4.22; F 3.9; P 4.55
H1: Y 4.12; P 2; R 4.55; K 4.53; L 4.8; E 4.92; A 3.52; T 4.04; C 3.42; V 4.43; W 3.11; N 4.5; S 4.16
R2: K 3.05; C 4.78; H 4.05; V 5; D 5.11; E 4.7; Y 5.39; T 4.95; P 4.96; G 4.84; I 3.4; N 4.2; W 3.71; Q 4.58; L 3.91; F 4.86

Variants of: B2
Assay: as above
Settings: c terminus: a fixed tail appended

Protein stability index, by site and new letter:
L12: T 2.21; S 2.42; H 1.25; Y 2.32; Q 2.1; I 2.14; D 2.16; E 2.32; P 3.4; F 1.91; V 1.39; W 1.8; R 3.06; K 2.34; G 1.79; A 1.61; M 1.22; N 1.82
D21: K 2.54; T 2.98; C 1.68; L 2.2; F 3.72; A 2.05; I 2.5; P 1.65; G 2.04; Y 3.03; E 1.33; H 3.17; N 2.6; M 2.04
A9: V 1.58; R 4.4; T 1.42; W 1.78; Y 1.98; Q 2.82; S 2.19
L23: V 1.67; R 2.38; A 1.72; Q 1.91; F 2.67; G 2.66; S 2.57; K 1.83; H 1.27; C 1.08; E 1.26; Y 1.97; M 4.59; D 2.75; W 1.7; I 2.39; N 2.58; P 2.21; T 1.19
R24: C 1.59; E 2.5; G 1.43; M 1.89; Y 1.91; L 2.96; A 1.21; S 2.62; D 2; F 2.23; T 1.88; V 1.67; Q 1.75; I 1.93; H 2.6; P 3.34; N 1.92; W 1.83; K 2.45
F19: I 2.39; L 1.9; P 2.17; M 2.48; R 2.12; E 1.53; G 3.15; C 2.4; A 2.97; K 2.35; Q 2.13; Y 1.6; S 2.73; H 1.31; D 2.14; W 1.89; N 1.53
E10: S 2.61; I 1.4; V 1.76; C 2.58; T 2.89; F 1.86; W 1.65; Q 2.35; P 2.12; L 1.93; H 3.21; R 1.95; A 2.7; D 1.44; Y 1.56; M 1.85
A15: L 1.63; M 2.05; T 3.37; F 2.42; W 1.88; Q 2.21; H 1.99; R 4.13; N 2.4; I 1.76; D 1.66; E 2; P 1.86; C 2.72; S 2.39; G 2.45; V 1.88; Y 2.5
V18: Q 3.07; R 3.86; C 2.37; I 2.82; T 3.25; K 2.05; D 2.44; H 3.52; W 1.64; G 3.13; M 2.59; S 3.52; E 2.37; P 1.91; Y 3.16; L 1.99; A 2.19; F 1.94
K17: H 1.71; E 1.72; V 1.52; I 2.31; G 1.91; P 1.2; Y 2.78; N 2.26; Q 1.44; F 1.91; W 2.18; S 1.82; T 2.05; R 2.07; M 1.79; A 2.99; D 1.27; C 1.86; L 2.03
V16: T 2.46; H 1.93; N 1.75; Q 1.86; L 1.39; D 1.95; F 2.56; Y 2.29; W 1.96; K 2.04; A 1.67; E 2.15; G 1.15; I 2.16; C 1.98; S 2.31; P 3.13; R 2.25; M 1.85
L20: Y 1.54; W 2.29; S 2.73; I 2.02; D 1.59; Q 2.02; E 1.7; T 3.12; P 1.76; A 3.26; M 2.64; R 1.58; C 3.11; F 2.52; G 1.77; K 1.41; V 1.4
P14: D 2.29; Q 1.83; C 1.7; K 3.27; F 1.97; T 2.54; R 1.69; I 1.19; V 1.42; M 1.75; L 1.67; E 1.96; N 2.38; W 2.46; S 2.32; Y 2.43; A 2.25; G 1.17
L13: S 2.78; H 2.6; M 2.27; N 1.99; V 2.04; Y 3.17; K 1.62; P 2.6; D 1.98; E 1.09; F 1.38; G 2.17; A 2.36; W 2.62; Q 1.71; C 2.25; R 1.37; T 1.29
W22: G 2.63; S 2.17; R 1.95; A 2.8; M 1.57; E 2.05; H 2.73; K 2.53; Q 2.38; N 2.28; L 2.47; I 1.96; P 2.26; C 1.99; V 1.62; F 2.09; Y 2.13; T 1.91
G11: P 2.2; L 1.6; M 2.38; Y 2.29; T 2.44; I 1.81; K 1.6; N 1.52; D 1.64; E 1.6; W 2.23; S 1.99; F 1.84; Q 1.69; C 1.99; R 2.04; H 1.99; V 2.56; A 2.28
